# Test results from patent US20250027114.
# Substitutions are numbered along the chain they refer to.
# What was measured:
# [1] = system: T1, E1-2-ABE8e (Neisseria meningitidis); assay: cell_activity; conditions: PAM N4YNC average, E. coli ABE-PPA; 14% on N4YND
# T1 sequence: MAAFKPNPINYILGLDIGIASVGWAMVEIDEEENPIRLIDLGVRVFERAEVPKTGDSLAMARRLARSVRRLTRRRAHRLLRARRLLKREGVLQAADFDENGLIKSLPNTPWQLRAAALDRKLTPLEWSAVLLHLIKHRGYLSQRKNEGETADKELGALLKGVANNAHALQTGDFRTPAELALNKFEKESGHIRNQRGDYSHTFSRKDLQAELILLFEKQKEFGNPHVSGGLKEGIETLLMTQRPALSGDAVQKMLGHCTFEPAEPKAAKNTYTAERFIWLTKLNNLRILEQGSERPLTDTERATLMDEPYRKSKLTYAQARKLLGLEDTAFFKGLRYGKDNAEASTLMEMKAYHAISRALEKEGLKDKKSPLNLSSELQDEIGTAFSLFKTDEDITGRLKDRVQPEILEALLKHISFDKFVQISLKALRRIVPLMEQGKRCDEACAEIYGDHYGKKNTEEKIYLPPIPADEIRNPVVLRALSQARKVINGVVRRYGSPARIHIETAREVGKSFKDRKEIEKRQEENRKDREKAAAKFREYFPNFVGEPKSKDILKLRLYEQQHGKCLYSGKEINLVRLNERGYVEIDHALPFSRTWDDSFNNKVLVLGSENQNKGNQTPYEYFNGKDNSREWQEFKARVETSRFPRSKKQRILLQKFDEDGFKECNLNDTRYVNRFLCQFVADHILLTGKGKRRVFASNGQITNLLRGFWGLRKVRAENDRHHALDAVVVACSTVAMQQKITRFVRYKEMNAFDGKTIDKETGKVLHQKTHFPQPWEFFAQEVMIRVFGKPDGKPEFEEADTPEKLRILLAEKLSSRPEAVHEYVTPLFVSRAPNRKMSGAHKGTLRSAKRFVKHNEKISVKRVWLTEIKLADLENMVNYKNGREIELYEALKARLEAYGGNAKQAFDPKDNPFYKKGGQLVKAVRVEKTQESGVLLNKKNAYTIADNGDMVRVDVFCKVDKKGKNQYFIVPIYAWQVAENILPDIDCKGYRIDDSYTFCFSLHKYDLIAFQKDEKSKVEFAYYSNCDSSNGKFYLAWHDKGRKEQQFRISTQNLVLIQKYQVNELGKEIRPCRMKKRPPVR
# [2] = system: T2, Nme2Cas9 (Nme2-ABE8e) (Neisseria meningitidis); assay: cell_activity; conditions: PAM N4YNC average, E. coli ABE-PPA; 14% on N4YND
# T2 sequence: T1 sequence with C441Y, R581K, I808T, G844D, S1025I, K1033R, R1043S, M1075L
sequence,measurement,setting,value
AUGGCCCAGACUGAGCACGUGAGGUUGUAGCUCCCUUUCUCAUUUCGGAAACGAAAUGAGAACCGUUGCUACAAUAAGGCCGUCUGAAAAGAUGUGCCGCAACGCUCUGCCCCUUAAAGCUUCUGCUUUAAGGGGCAUCGUUUA / ATGGCCCAGACTGAGCACGTGA / TCACGTGCTCAGTCTGGGCCAT [ABE-PPA sgRNA ; ABE-PPA protospacer library target],activity (% A-to-G conversion),[1],29
same,activity (% A-to-G conversion),[2],18
